According to paper PMC7093963, “DDX39B interacts with the pattern recognition receptor pathway to inhibit NF-κB and sensitize to alkylating chemotherapy”:

Biological target: His-DDX39B (UniProt Q13838 1-428)
Test: EMSA; 0-300 ng protein; bound more than -1A; EMSA: bacterially expressed DDX39B, 32P probes, non-denaturing 5% acrylamide gel; binding buffer, salt, pH and temperature not given. Pull-down: U87 nuclear extract pre-cleared with non-specific biotin DNA, 2 h with probe
Details: protein: recombinant; tags: N-terminal His (pET-45b, 5' polyhistidine); label: 32P (T4 PNK); blunt

His-DDX39B, sequence (Q13838 whole entry): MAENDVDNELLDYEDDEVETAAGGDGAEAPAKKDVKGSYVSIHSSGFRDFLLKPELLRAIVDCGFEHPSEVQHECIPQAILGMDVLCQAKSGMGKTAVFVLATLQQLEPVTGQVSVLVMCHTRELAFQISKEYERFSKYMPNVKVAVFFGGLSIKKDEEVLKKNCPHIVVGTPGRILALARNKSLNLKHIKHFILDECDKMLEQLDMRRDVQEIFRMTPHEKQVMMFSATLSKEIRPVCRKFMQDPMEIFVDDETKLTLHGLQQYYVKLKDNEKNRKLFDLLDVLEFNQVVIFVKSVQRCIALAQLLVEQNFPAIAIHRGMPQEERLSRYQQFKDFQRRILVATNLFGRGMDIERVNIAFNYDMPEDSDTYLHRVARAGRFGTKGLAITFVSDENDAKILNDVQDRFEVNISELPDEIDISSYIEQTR

B1: -1C kB probe (dsDNA)
DNA 1: TCGAGTTAGATGGGGACTTTCCAGGCAC
DNA 2: GTGCCTGGAAAGTCCCCATCTAACTCGA
**Q.** Does B1 bind?
**A.** Result: binds
